In article PMC9482650, “Quantitative fragmentomics allow affinity mapping of interactomes” (Nature Communications, 2022):

Key:
Assay in all cases: holdup assay
Set-up in all cases: key: below the threshold = too weak to quantify, mostly under pKd 3.1 to 4
Settings in all cases: plain residues with an end cap or a label only (N-terminal biotin on a linker: ttds)
[1] = target: TJP2_1, Q9UDY2
[2] = target: T1, APBA2_1, Q99767
T1 sequence (Q99767 563-664, limits assumed, looked up): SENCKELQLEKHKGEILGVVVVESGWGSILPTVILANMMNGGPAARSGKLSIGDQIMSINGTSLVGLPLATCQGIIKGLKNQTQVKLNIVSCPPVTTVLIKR

[3] = target: LDB3, O75112
[4] = target: Inadl_6, Q8NI35
[5] = target: MAGI2_4, Q86UL8
[6] = target: T2, RHPN1, Q8TCX5
T2 sequence (Q8TCX5 508-602, limits assumed, looked up): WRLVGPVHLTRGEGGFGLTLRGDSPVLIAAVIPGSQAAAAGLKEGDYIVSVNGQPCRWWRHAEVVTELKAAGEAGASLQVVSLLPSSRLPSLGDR

[7] = target: PDZRN4_1, Q6ZMN7
[8] = target: DLG4_1, P78352
[9] = target: T3, LNX2_2, Q8N448
T3 sequence (Q8N448 334-432, limits assumed, looked up): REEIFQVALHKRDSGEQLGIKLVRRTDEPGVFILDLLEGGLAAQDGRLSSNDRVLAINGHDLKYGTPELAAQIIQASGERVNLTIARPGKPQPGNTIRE

[10] = target: Inadl_5, Q8NI35
[11] = target: DLG1_1, Q12959
[12] = target: T4, DLG3_1, Q92796
T4 sequence (Q92796 125-227, limits assumed, looked up): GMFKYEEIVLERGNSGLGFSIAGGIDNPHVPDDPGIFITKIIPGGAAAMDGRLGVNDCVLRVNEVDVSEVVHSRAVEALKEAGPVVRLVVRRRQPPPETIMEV

[13] = target: FRMPD4, Q14CM0
[14] = target: T5, ARHGEF11, O15085
T5 sequence (O15085 42-136, limits assumed, looked up): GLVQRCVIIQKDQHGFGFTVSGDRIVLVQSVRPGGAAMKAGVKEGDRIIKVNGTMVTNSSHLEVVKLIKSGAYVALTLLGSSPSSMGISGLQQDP

[15] = target: Inadl_4, Q8NI35
[16] = target: T6, SNTG1, Q9NSN8
T6 sequence (Q9NSN8 52-150, limits assumed, looked up): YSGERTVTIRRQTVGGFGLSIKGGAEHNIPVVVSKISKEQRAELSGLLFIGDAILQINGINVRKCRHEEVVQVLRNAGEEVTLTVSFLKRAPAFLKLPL

[17] = target: MAGI2_6, Q86UL8
[18] = target: T7, GRIP1_3, Q9Y3R0
T7 sequence (Q9Y3R0 247-346, limits assumed, looked up): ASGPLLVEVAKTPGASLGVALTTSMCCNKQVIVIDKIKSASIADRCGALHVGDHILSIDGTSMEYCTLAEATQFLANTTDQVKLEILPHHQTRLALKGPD

[19] = target: FRMPD2_3, Q68DX3
[20] = target: MAGI1_1, Q96QZ7
[21] = target: MAGI1_2, Q96QZ7
[22] = target: GRIP2_5, Q9C0E4
[23] = target: T8, GRIP1_5, Q9Y3R0
T8 sequence (Q9Y3R0 568-668, limits assumed, looked up): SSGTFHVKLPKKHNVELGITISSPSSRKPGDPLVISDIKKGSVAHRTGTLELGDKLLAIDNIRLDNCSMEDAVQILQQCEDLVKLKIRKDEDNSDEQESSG

[24] = target: T9, NHERF3_1, Q5T2W1
T9 sequence (Q5T2W1 4-100, limits assumed, looked up): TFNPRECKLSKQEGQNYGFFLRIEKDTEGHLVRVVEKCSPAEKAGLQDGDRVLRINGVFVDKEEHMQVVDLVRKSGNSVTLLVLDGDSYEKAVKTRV

[25] = target: Inadl_2, Q8NI35
[26] = target: T10, DVL3, Q92997
T10 sequence (Q92997 244-331, limits assumed, looked up): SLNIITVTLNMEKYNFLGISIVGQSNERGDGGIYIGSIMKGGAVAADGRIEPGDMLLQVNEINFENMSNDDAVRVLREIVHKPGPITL

[27] = target: T11, HTRA4, P83105
T11 sequence (P83105 378-476, limits assumed, looked up): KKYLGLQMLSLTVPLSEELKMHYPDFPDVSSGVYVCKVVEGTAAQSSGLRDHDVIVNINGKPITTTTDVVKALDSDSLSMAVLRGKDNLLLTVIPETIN

Sequence of MAGI2_4, Q86UL8 (Q86UL8 772-865): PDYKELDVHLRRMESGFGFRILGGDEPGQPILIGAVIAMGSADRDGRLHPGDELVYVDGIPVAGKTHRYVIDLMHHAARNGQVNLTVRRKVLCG
Sequence of FRMPD4, Q14CM0 (Q14CM0 67-160): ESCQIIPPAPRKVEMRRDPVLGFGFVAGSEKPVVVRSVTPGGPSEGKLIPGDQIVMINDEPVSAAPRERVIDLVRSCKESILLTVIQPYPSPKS
Sequence of MAGI1_2, Q96QZ7 (Q96QZ7 456-580): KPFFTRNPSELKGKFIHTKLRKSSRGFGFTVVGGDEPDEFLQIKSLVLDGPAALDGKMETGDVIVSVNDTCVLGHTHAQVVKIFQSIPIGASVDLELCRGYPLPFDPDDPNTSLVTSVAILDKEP
Sequence of Inadl_5, Q8NI35 (Q8NI35 673-780): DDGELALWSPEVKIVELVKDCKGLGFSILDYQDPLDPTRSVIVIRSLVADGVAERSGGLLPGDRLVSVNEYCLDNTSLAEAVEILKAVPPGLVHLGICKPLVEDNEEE
Sequence of DLG4_1, P78352 (P78352 62-152): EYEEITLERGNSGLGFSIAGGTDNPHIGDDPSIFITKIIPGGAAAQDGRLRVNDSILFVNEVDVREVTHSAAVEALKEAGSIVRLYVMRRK
Sequence of LDB3, O75112 (O75112 1-94): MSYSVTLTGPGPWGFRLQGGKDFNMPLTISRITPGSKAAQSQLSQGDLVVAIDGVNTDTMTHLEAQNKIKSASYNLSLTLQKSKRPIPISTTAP
Sequence of TJP2_1, Q9UDY2 (Q9UDY2 24-128): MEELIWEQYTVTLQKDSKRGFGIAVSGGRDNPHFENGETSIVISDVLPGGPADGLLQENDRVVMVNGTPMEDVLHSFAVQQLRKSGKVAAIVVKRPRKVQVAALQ
Sequence of Inadl_2, Q8NI35 (Q8NI35 238-335): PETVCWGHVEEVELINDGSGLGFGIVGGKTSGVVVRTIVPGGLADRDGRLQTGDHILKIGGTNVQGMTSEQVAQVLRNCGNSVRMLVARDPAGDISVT
Sequence of Inadl_4, Q8NI35 (Q8NI35 547-651): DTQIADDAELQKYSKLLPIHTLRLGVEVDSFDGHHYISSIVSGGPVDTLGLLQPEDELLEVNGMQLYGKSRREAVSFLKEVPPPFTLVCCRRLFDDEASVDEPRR
Sequence of MAGI1_1, Q96QZ7 (Q96QZ7 1-106): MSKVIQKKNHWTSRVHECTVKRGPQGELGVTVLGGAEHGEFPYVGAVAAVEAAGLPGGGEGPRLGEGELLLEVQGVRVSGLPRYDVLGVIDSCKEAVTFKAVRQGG
Sequence of PDZRN4_1, Q6ZMN7 (Q6ZMN7 213-318): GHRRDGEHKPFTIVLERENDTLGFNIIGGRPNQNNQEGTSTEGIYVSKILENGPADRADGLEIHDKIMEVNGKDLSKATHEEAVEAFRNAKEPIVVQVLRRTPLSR
Sequence of GRIP2_5, Q9C0E4 (Q9C0E4 544-642): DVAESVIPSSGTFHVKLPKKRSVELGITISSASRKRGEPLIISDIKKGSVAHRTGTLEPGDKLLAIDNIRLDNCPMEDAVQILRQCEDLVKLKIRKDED
Sequence of FRMPD2_3, Q68DX3 (Q68DX3 1073-1166): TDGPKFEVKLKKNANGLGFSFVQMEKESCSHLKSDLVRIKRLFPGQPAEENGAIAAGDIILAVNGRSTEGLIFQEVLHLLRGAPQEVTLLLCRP
Sequence of Inadl_6, Q8NI35 (Q8NI35 1058-1167): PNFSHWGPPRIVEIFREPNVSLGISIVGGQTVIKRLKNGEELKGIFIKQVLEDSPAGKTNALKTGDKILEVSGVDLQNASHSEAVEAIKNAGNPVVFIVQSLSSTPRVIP
Sequence of MAGI2_6, Q86UL8 (Q86UL8 1141-1229): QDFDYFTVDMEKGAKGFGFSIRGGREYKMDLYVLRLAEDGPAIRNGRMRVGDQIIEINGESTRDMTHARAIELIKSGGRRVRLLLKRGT

Row | Binder | pKd [1] | pKd [2] | pKd [3] | pKd [4] | pKd [5] | pKd [6] | pKd [7] | pKd [8] | pKd [9] | pKd [10] | pKd [11] | pKd [12] | pKd [13] | pKd [14] | pKd [15] | pKd [16] | pKd [17] | pKd [18] | pKd [19] | pKd [20] | other results
1 | RRVRKLPSTTL [RPS6KA1, Q15418] | below the threshold | below the threshold | below the threshold | below the threshold | 3.78 | 4.26 | 4.13 | 3.68 | 3.6 | below the threshold | below the threshold | below the threshold | below the threshold | 4.44 | below the threshold | 3.88 | below the threshold | below the threshold | below the threshold | 3.64 | pKd [21]: 4.3; pKd [22]: below the threshold; pKd [23]: 3.52; pKd [24]: 4.03; pKd [25]: below the threshold; pKd [26]: below the threshold; pKd [27]: 3.71
2 | QPGTPTRTAV [MAP2K2, P36507] | 3.71 | below the threshold | below the threshold | below the threshold | 3.74 | below the threshold | below the threshold | below the threshold | below the threshold | below the threshold | 3.53 | below the threshold | below the threshold | below the threshold | below the threshold | 3.66 | below the threshold | below the threshold | below the threshold | below the threshold | pKd [21]: below the threshold; pKd [22]: below the threshold; pKd [23]: below the threshold; pKd [24]: below the threshold; pKd [25]: below the threshold; pKd [26]: below the threshold; pKd [27]: below the threshold
